{"source": "patent US20060177432A1", "about": "(Novartis, published 2006)", "binders": {"B1": {"name": "PEBP-H6 (mouse PEBP with a stretch of six histidine residues fused to the carboxy-terminus) (other)", "chain": "AADISQWAGPLCLQEVDEPPQHALRVDYAGVTVDELGKVLTPTQVMNRPSSISWDGLDPGKLYTLVLTDPDAPSRKDPKFREWHHFLVVNMKGNDISSGTVLSDYVGSGPPSGTGLHRYVWLVYEQEQPLSCDEPILSNKSGDNRGKFKVETFRKKYNLGAPVAGTCYQAEWDDYVPKLYEQLSGKHHHHHH", "notes": "Expressed in Rat-1 cells and purified on Ni-NTA"}}, "key": {"human α-thrombin": {"molecular_target": "human α-thrombin (human, UniProt P00734 328-622)", "assay": "chromogenic substrate hydrolysis at varied substrate and PEBP-H6 concentrations, fitted to the equation for a competitive inhibitor", "experimental": "(§1) Six different serine proteases were diluted in enzyme buffer (67 mM Tris, pH 8.0, 133 mM NaCl, 0.13% PEG-6000) and used in protease activity assays with the following final amounts: thrombin, trypsin and chymotrypsin, 0.005 pmol; t-PA and neuropsin, 0.5 pmol; and pancreatic elastase, 4 pmol. Human α-thrombin was prepared and according to Stone et al. (Stone, S. R. and Hofsteenge, J. (1986) Biochemistry 25, 46224628); all other proteases are commercially available (e.g., Sigma, Fluka). […] The pre-incubation was carried out in a 96-well plate for 30 min at 37° C. After addition of 10 μl chromogenic protease substrate (H-D-Ile-Pro-Arg-para-nitroanilide, Chromogenix, 1.25 mg/ml in H₂O for all proteases other than chymotrypsin; or N-Succinyl-Ala-Ala-Pro-Phe-para-nitroanilide, Sigma, 2.3 mg/ml in H₂O for chymotrypsin), any remaining amidolytic activity was determined by measuring the rate of hydrolysis of the chromogenic substrate at 405 nm over 30 min using a THERMOmax microplate reader (Molecular Devices). […]\n(§2) To determine the inhibition constants, the rates for the hydrolysis of the chromogenic substrates were measured as described above at fixed enzyme concentrations and substrate concentrations ranging from 3.5 μM to 216 μM and PEBP-H6 concentrations between 0 and 2.9 μM. […]"}, "chymotrypsin": {"molecular_target": "chymotrypsin", "assay": "chromogenic substrate hydrolysis at varied substrate and PEBP-H6 concentrations, fitted to the equation for a competitive inhibitor", "experimental": "as §1, §2"}}}
{"binder": "B1", "values": [{"measurement": "Ki", "setting": "human α-thrombin", "result": 380, "unit": "nM"}, {"measurement": "Ki", "setting": "chymotrypsin", "result": 1800, "unit": "nM"}]}
